Source: article doi:10.1101/2020.02.07.938530
Like-named read-outs stand apart in the source and are kept apart here.

Columns and labels:
[1] = molecular target: 5FLAG-Scc1 (yeast (budding yeast, Saccharomyces cerevisiae)) (UniProt Q12158); assay: co-IP
[2] = molecular target: 5FLAG-Scc1 (yeast (budding yeast, Saccharomyces cerevisiae)) (UniProt Q12158); assay: co-IP; remark: listed apart in the source

Sequence of UniProt Q12158 (Q12158 whole entry): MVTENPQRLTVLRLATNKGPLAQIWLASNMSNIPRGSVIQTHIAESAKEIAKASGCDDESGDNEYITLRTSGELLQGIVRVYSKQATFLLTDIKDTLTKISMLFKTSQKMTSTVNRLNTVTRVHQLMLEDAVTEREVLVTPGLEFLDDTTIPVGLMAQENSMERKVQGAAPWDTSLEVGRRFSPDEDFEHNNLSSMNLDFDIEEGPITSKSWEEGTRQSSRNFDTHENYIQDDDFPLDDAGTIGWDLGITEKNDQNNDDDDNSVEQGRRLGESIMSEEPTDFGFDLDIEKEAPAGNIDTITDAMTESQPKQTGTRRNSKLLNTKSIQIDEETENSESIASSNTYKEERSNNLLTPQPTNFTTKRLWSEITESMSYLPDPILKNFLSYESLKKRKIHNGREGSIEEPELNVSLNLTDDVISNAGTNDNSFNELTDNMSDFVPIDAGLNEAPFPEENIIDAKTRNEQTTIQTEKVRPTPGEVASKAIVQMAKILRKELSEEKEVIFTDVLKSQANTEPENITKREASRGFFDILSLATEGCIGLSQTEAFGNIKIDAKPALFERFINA

GFP-Scc1 (from UniProt Q12158 1-566) (natural protein)
percentage of cohesin dimers [1]: 40%
percentage of cohesin dimers [2]: 20%
